Source: article PMC5906480, “Tau Antibody Structure Reveals a Molecular Switch Defining a Pathological Conformation of the Tau Protein” (Scientific Reports, 2018)
“Also recorded” adds a separate entry of the source.

Key:
pS404 peptide = test: ELISA, pS404 peptide; assay type: binding; conditions: plate coated with peptide 2 μg/mL; C5.2 IgG 8 μg/mL–0.05 ng/mL, 1 h room temperature; 405 nm
Method: Immulon 4 HBX (extra high-binding) 96-well microtiter plates (Thermo Scientific) were coated with the same peptide used for crystallization diluted to 2 μg/mL in phosphate-buffered saline (PBS) and left overnight at 4 °C (Table 1). Plates were then washed three times in PBS-T (PBS containing 0.05% Tween-20) and blocked in 5% non-fat milk and 3% bovine serum albumin in PBS for 2 hours at room temperature. Plates were subsequently washed 3 times in PBS-T before C5.2 was serially diluted (8 μg/mL–0.05 ng/mL) in PBS and incubated for 1 hour at room temperature. Then, alkaline phosphatase-conjugated goat anti-mouse IgG (Southern Biotech) was diluted 1:2000 in PBS and incubated for 30 minutes at room temperature. Finally, bound IgG was analyzed by addition of p-nitrophenyl phosphate substrate (Thermo Scientific) and measurement at 405 nm on a VersaMax Microplate Reader.
In order to evaluate the ability of C5.2 to exclusively target the phosphorylated epitope, we performed an enzyme-linked immunosorbent assay (ELISA). The peptides used in the assay are the same peptides used for crystallization and diluted to a concentration of 2 μg/mL (Table 1). Binding curves were generated from ELISA data by maintaining plate-bound peptide concentrations and serially diluting C5.2 IgG (Fig. 1c).

[1] = tested on: tau in Alzheimer's disease brain fractions; test: Western and dot blot, Alzheimer's disease brain; assay type: binding, human
Method: Mice were euthanized by cervical dislocation. Brains were quickly removed, weighed and divided sagittally down the midline to yield two hemispheres. One hemisphere was parted from the cerebellum and hindbrain, the forebrain containing cerebral cortex and hippocampus was snap-frozen on dry ice and stored at −80 °C until use for biochemical analysis. Frontal cortices from 4 AD donors (2 males and 2 females) and 4 non-demented healthy controls (HC, 2 males and 2 females) were obtained from Cambridge Bioscience (Cambridge, UK). The brain tissue samples were fresh-frozen and stored at −80 °C until used for biochemical analysis. All donors were of Caucasian race. Age of AD donors: 76–91 years. Age of the HC donors: 57–80 years. Post-mortem delays: 3–8 hours.
Brain tissue extraction was performed as described previously. Tissues were homogenized in 10 volumes of Tris-buffered saline containing protease and phosphatase inhibitors as follows: 50 mM Tris/HCl (pH 7.4); 274 mM NaCl; 5 mM KCl; 1% protease inhibitor mixture (Roche); 1% phosphatase inhibitor cocktail I & II (Sigma); and 1 mM phenylmethylsulfonyl fluoride (PMSF; Sigma). The homogenates were centrifuged at 27,000 × g for 20 min at 4 °C to obtain supernatant (S1) and pellet fractions. Pellets were re-homogenized in 5 volumes of high salt/sucrose buffer (0.8 M NaCl, 10% sucrose, 10 mM Tris/HCl, [pH 7.4], 1 mM EGTA, 1 mM PMSF) and centrifuged as above. The supernatants were collected and incubated with sarkosyl (1% final concentration; Sigma) for one hour at 37 °C, followed by centrifugation at 150,000 × g for one hour at 4 °C to obtain sarkosyl-insoluble pellets, referred to as P3. The P3 pellet was re-suspended in TE buffer (10 mM Tris/HCl [pH 8.0], 1 mM EDTA) to a volume equivalent to half of the original volume used for the brain homogenates. S1 and P3 fractions isolated from the individual 4 AD and 4 HC brains were pooled and used as AD pool and HC pool for western and dot blot analysis.
Samples were boiled in 1 × LDS loading buffer and 100 mM DTT. […] Tau and pTau levels were assessed in the samples using 1 μg/mL C5.2 overnight at 4 °C. A secondary fluorophore conjugated IgG antibody was used (IRDye 680 Goat anti-mouse, LICOR biosciences) and the signal was quantified using Odyssey CLx and Image studio software (LI-COR biosciences).
1 μl sample of S1 and P3 isolated from 24 weeks old rTg4510 and non-transgenic littermate (non-tg) mice or from four pooled Alzheimer’s disease (AD) and healthy control (HC) brains was spotted on nitrocellulose membranes. […] Bound antibodies were detected using an enhanced chemiluminescence system (ECL PLUS kit; Perkin Elmer).

[2] = tested on: tau pathology in Alzheimer's disease brain sections (prefrontal cortex); test: Immunohistochemistry, Alzheimer's disease brain sections; assay type: binding, human; conditions: C5.2 at 0.1 to 1 μg/mL, overnight 4 °C, paraffin sections
Method: Paraffin sections of 4 μm thickness were prepared from blocks of PFA-fixed prefrontal cortex from AD donors and non-demented controls obtained from Tissue Solutions (Glasgow, UK). The sections were deparaffinised, rehydrated and subjected to antigen retrieval by boiling in 10 mM citrate buffer pH 6 for 5 min. Endogenous peroxidase was quenched for 10 min with 1% H2O2 in PBS. Sections were then incubated 20 min in blocking buffer followed by overnight incubation in a humidified chamber at 4 °C with primary antibody at 0.1 to 1 μg/mL in incubation buffer. Between each incubation step, the sections were washed 3 × 10 min in wash buffer. Subsequently, the sections were incubated at room temperature in the following solutions; 60 min with a biotinylated secondary Ab diluted 1:200 in wash buffer; 60 min in ABC; 20 min in DAB. Finally, the sections were counterstained with hematoxylin and coverslipped.

B1: C5.2: novel mouse monoclonal antibody that targets the pS396 tau epitope region (antibody, V domains shown)
VH: QVQLQQSDAELVKPGASVKISCKASGYTFTDRTIHWVKQRPEQGLEWIGYIYPGDDSTKYNDMFKAKATLTADKSSNTAYMQLNSLTSDDSAVYFCARRGTMDYWGQGTSVTVSS
VL: DVQMIQSPSSLSASLGDIVTMTCQASQDTSINLNWFQQKPGKAPKLLIYGASNLEDGVPSRFSGSRYGTDFTLTISSLEDEDMATYFCLQHTYLPFTFGSGTKLEIK
- Recognition of peptide (ELISA) (pS404 peptide): lack of recognition; also recorded: does not bind
- Binding to insoluble tau fraction (P3) ([1]; C5.2 1 µg/mL overnight 4 °C, sarkosyl-insoluble P3, pool of 4 AD donors): binds predominantly to an insoluble tau fraction (P3)
- Reactivity to soluble tau fraction (S1) ([1]; C5.2 1 µg/mL overnight 4 °C, soluble S1, pool of 4 AD donors): also has reactivity to a soluble tau fraction (S1)
- Specificity for pathological tau protein ([1]; overall statement from blots and immunohistochemistry (Fig. 1), AD and rTg4510 vs controls): specific for pathological tau protein
- Bands recognized in S1 and P3 ([1]; western blot, C5.2 1 µg/mL, pool of 4 AD donors): recognizes similar bands in both fractions
- Binding in AD brain sections [2]: binds strongly to tangles, pre-tangles and dystrophic neurites
